Molecular target: glycosylated myrosinase without GST-tag (produced in S. cerevisiae MGY70-myr) (broccoli)
Assay: SEC; Sephacryl S-200 HR column 0.7 x 30 cm, 1 mL of purified myrosinase fraction (1 mg/mL) loaded, 0.3 mL/min, 0.2 M Tris-HCl pH 7.4; mass from a calibration curve with protein standards; self-association, monomer to dimer

- stoichiometry N: 2
Substance: glycosylated myrosinase without GST-tag (produced in S. cerevisiae MGY70-myr) (enzyme)

Reference: paper PMC8961631
